Assay results reported in article PMC12284214, “Structural basis for the activity regulation of Medicago calcium channel CNGC15” (Cell Discovery, 2025).

Target: the molecule itself
Test: cryo-EM structure; MtCNGC15b alone, in 25 mM Tris pH 8.0, 150 mM NaCl, 0.006% GDN; 3.1 Å; also with 5 mM cGMP (no structural change)

B1: Medicago truncatula CNGC15b (natural protein, M. truncatula, UniProt G7JND3 1-620, looked up)
chain: MVTPKFMSDLFEGDHLELAKLTSPNGDNGIKFNEKHVAPRVLSRVFSEDYKRVKRRRRIFDPRGQTIHQWNKIFLVACLISLFVDPLFFYLPIVQDEVCIDIGIAVEVFLIIIRSIADVFYVIHIFMRFHTAYVAPSSRVFGRGELVIDSSKIASRYLHKGFFLDFIAALPLPQVLIWIVIPNLGGSTIANTKNVLRFIIIIQYLPRLFLIFPLSSQIVKATGVVTETAWAGAAYNLMLYMLASHVLGACWYLLSIERQEACWKSVCKLEESSCQFDFFDCNMVKDSLRVSWFVTSNVTNLCSPNSLFYQFGIYGDAVTSKVTTSAFFNKYFFCLWWGLRNLSSLGQGLLTSTFVGEIMFAIVIATLGLVLFALLIGNMQTYLQSTTVRLEEWRVKRTDTEQWMHHRQLPQELRQSVRKYDQYKWIATRGVDEESLLRGLPLDLRRDIKRHLCLELVRRVPLFDAMDERMLDAICERLKPALCTENTYLVREGDPVNEMLFIIRGNLDSYTTDGGRTGFFNSCRIGPGDFCGEELLTWALDPRPTMVIPSSTRTVKAISEVEAFALIAEDLKFVASQFRRLHSKQLRNKLRFHSHQWRTWAACFIQVAWRRTIQEKKGSC
notes: residues 58-385 were modelled in the apo map; In the functional rows the protein was made from cRNA in Xenopus oocytes with that signal peptide; also called MtCNGC15b; MtCNGC15; source: HEK293F, transfected; purified (anti-Flag M2, Strep-Tactin, SEC) in GDN; not shown: Flag, C-terminal, kept; TwinStrep, C-terminal, kept
binding result: binds
